Measured values reported in patent US7966133B2, “Method of identifying a potential substrates of an O-methyltransferase” (The Salk Institute for Biological Studies, priority 2000, dated 2011).
Changes are numbered by the printed parent chain. Numbers in names are those of the source. Entries after “also recorded” stand apart in the source; their conditions may differ.

B1: IOMT: Isoflavone O-methyltransferase (SEQ ID NO:4) from Medicago sativa L, recombinant wild type (protein, listed as Medicago sativa)
chain: MASSINGRKPSEIFKAQALLYKHIYAFIDSMSLKWAVGMNIPNIIHNHGKPISLSNLVSILQVPSSKIGNVRRLMRYLAHNGFFEIITKEEESYALTVASELLVRGSDLCLAPMVECVLDPTLSGSYHELKKWIYEEDLTLFGVTLGSGFWDFLDKNPEYNTSFNDAMASDSKLINLALRDCDFVFDGLESIVDVGGGTGTTAKIICETFPKLKCIVFDRPQVVENLSGSNNLTYVGGDMFTSIPNADAVLLKYILHNWTDKDCLRILKKCKEAVTNDGKRGKVTIIDMVINEKKDENQVTQIKLLMDVNMACLNGKERNEEEWKKLFIEAGFQHYKISPLTGFLSLIEIYP
B2: H278L: ChOMT catalytic histidine mutant, His 278 to leucine (protein, listed as Medicago sativa)
chain: MGNSYITKEDNQISATSEQTEDSACLSAMVLTTNLVYPAVLNAAIDLNLFEIIAKATPPGAFMSPSEIASKLPASTQHSDLPNRLDRMLRLLASYSVLTSTTRTIEDGGAERVYGLSMVGKYLVPDESRGYLASFTTFLCYPALLQVWMNFKEAVVDEDIDLFKNVHGVTKYEFMGKDKKMNQIFNKSMVDVCATEMKRMLEIYTGFEGISTLVDVGGGSGRNLELIISKYPLIKGINFDLPQVIENAPPLSGIEHVGGDMFASVPQGDAMILKAVCLNWSDEKCIEFLSNCHKALSPNGKVIIVEFILPEEPNTSEESKLVSTLDNLMFITVGGRERTEKQYEKLSKLSGFSKFQVACRAFNSLGVMEFYK
B3: H278A: ChOMT catalytic histidine mutant, His 278 to alanine (protein, listed as Medicago sativa)
chain: B2 chain with L278A
B4: H278Q: ChOMT catalytic histidine mutant, His 278 to glutamine (protein, listed as Medicago sativa)
chain: B2 chain with L278Q
B5: H278K: ChOMT catalytic histidine mutant, His 278 to lysine (protein, listed as Medicago sativa)
chain: B2 chain with L278K
B6: H278N: ChOMT catalytic histidine mutant, His 278 to asparagine (protein, listed as Medicago sativa)
chain: B2 chain with L278N

Columns and labels:
[1] = aqueous solution; cited from earlier work
nod genes = conditions: among compounds released from alfalfa roots; via nodD1 and nodD2; cited from earlier work
IOMT = experiment: Qualitative enzyme activity assay, IOMT (14C-SAM, TLC autoradiography); assay type: biochemical, Medicago sativa L; conditions: expressed in E. coli
ChOMT = experiment: Qualitative enzyme activity assay, ChOMT (14C-SAM, TLC autoradiography); assay type: biochemical, Medicago sativa L; conditions: 20 μg protein, 500 μM 2′,4,4′-trihydroxychalcone, 500 μM 14C-SAM, 2 hr room temperature; FIG. 7A

| Molecule | methyltransferase activity of ChOMT His 278 mutants (ChOMT) | also measured |
| --- | --- | --- |
| O=C1c2ccc(O)cc2OC(O)C1c1ccc(O)cc1 (centres unmarked) [2,7,4′-trihydroxyisoflavanone] | – | aqueous stability [1]: lack of aqueous stability; also recorded: unstable in aqueous solution |
| COc1cc(O)ccc1C(=O)/C=C/c1ccc(O)cc1 [4,4′-dihydroxy-2′-methoxychalcone] | – | transcriptional activation of nod genes (nod genes): most efficient transcriptional activator |
| B1 | – | specific activity of recombinant IOMT (IOMT): comparable to published values |
| B2 | completely eliminated methyltransferase activity | – |
| B3 | completely eliminated methyltransferase activity | – |
| B4 | completely eliminated methyltransferase activity | – |
| B5 | completely eliminated methyltransferase activity | – |
| B6 | completely eliminated methyltransferase activity | – |
